Laboratory results reported in US20150203577A1 (Chugai, published 2015).
Residue numbers refer to the chain shown, from its start.

T1: mouse FcγRII extracellular domain, C-terminal His tag (mouse, UniProt P08101 30-210)
T1 construct: Whole entry named; also called mFcγRII; mFcgRII
T1 sequence: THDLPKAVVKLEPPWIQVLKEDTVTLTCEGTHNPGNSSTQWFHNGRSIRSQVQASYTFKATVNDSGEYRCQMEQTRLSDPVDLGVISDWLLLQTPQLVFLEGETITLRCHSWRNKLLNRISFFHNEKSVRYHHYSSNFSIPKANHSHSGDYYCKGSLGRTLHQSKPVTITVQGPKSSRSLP

T2: mouse FcγRIII extracellular domain, C-terminal His tag (mouse, UniProt P08508 31-215)
T2 construct: Whole entry named; also called mFcγRIII; mFcgRIII
T2 chain: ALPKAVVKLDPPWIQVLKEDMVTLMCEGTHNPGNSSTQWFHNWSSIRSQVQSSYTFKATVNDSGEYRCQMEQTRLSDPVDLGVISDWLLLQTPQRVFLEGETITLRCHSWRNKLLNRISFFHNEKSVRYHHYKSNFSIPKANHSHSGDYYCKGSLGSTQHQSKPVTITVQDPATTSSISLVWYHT

T3: mouse FcγRII extracellular domain, C-terminally His-tagged (mouse, UniProt P08101 30-210)
T3 construct: the whole entry is named; also called mFcγRII; mFcgRII
T3 sequence: T1 sequence

T4: mouse FcγRIII extracellular domain, C-terminally His-tagged (mouse, UniProt P08508 31-215)
T4 construct: the whole entry is named; also called mFcγRIII; mFcgRIII
T4 chain: T2 chain

B1: H237-MB886/MRAL-k0 (antibody, mouse IgG1, kappa)
heavy: QVQLQESGPGLVKPSETLSLTCAVSGHSISHDHAWSWVRQPPGEGLEWIGFISYSGITNYNPSLQGRVTISRDNSKNTLYLQMNSLRAEDTAVYYCARSLARTTAMDYWGEGTLVTVSSAKTTPPSVYPLAPGSAAQTNSMVTLGCLVKGYFPEPVTVTWNSGSLSSGVHTFPAVLQSDLYTLSSSVTVPSSTWPSETVTCNVAHPASSTKVDKKIVPRDCGCKPCICEPNEEESVFIFPPKPKDVLTITLTPKVTCVVVDISKDDPEVQFSWFVDDVEVHTAQTQPREEQFNSTFRSVSELPIMHQDWLNGKEFKCRVNSAAFPAPIEKTISKTKGRPKAPQVYTIPPPKEQMAKDKVSLTCMITDFFPEDITVEWQWNGQPAENYKNTQPIMDTDGSYFVYSKLNVQKSNWEAGNTFTCSVLHEGLHNHHTEKSLSHSPGK
light: not shown
notes: copies: 2 + 2
B2: H237-MB883/MRAL-k0 (antibody, mouse IgG1, kappa)
heavy: B1 heavy with N231A, E234S, S235L
light: not shown
notes: copies: 2 + 2
B3: H237-MB878/MRAL-k0 (antibody, mouse IgG1, kappa)
heavy: B1 heavy with E229T, N231A, S235L
light: not shown
notes: copies: 2 + 2
B4: H237-MB884/MRAL-k0 (antibody, mouse IgG1, kappa)
heavy: B1 heavy with E234S, S235L
light: not shown
notes: copies: 2 + 2
B5: H237-MB885/MRAL-k0 (antibody, mouse IgG1, kappa)
heavy: B1 heavy with N231A
light: not shown
notes: copies: 2 + 2
B6: H237-MB732/MRAL-k0 (antibody, mouse IgG1, kappa)
heavy: B1 heavy with S235L
light: not shown
notes: copies: 2 + 2
B7: H237-MB731/MRAL-k0 (antibody, mouse IgG1, kappa)
heavy: B1 heavy with N231A, S235L
light: not shown
notes: copies: 2 + 2
B8: H237-MB706/MRAL-k0 (antibody, mouse IgG1, kappa)
heavy: B1 heavy with N231A, E233V, S235V
light: not shown
notes: copies: 2 + 2
B9: H237-MB712/MRAL-k0 (antibody, mouse IgG1, kappa)
heavy: B1 heavy with N231A, E233V, S235H
light: not shown
notes: copies: 2 + 2
B10: H237-MB792/MRAL-k0 (antibody, mouse IgG1, kappa)
heavy: B1 heavy with E229Q, E233V, S235V
light: not shown
notes: copies: 2 + 2
B11: H237-MB720/MRAL-k0 (antibody, mouse IgG1, kappa)
heavy: B1 heavy with E233V, S235R
light: not shown
notes: copies: 2 + 2
B12: H237-MB721/MRAL-k0 (antibody, mouse IgG1, kappa)
heavy: B1 heavy with E233V, S235H
light: not shown
notes: copies: 2 + 2
B13: H237-MB707/MRAL-k0 (antibody, mouse IgG1, kappa)
heavy: B1 heavy with N231A, E233V, S235I
light: not shown
notes: copies: 2 + 2
B14: H237-MB711/MRAL-k0 (antibody, mouse IgG1, kappa)
heavy: B1 heavy with N231A, E233V, S235R
light: not shown
notes: copies: 2 + 2
B15: H237-MB867/MRAL-k0 (antibody, mouse IgG1, kappa)
heavy: B1 heavy with E233V, S235I, K264D, A322D, A323G
light: not shown
notes: copies: 2 + 2
B16: H237-MB877/MRAL-k0 (antibody, mouse IgG1, kappa)
heavy: B1 heavy with E233V, S235I, K264D, N320D, A322D, A323G, K330R
light: not shown
notes: copies: 2 + 2
B17: H237-MB869/MRAL-k0 (antibody, mouse IgG1, kappa)
heavy: B1 heavy with E233V, S235I, K264D, A322D, A323G, E329Y
light: not shown
notes: copies: 2 + 2
B18: H237-MB875/MRAL-k0 (antibody, mouse IgG1, kappa)
heavy: B1 heavy with E233V, S235I, K264D, Q291L, N320D, A322D, A323G
light: not shown
notes: copies: 2 + 2
B19: H237-MB871/MRAL-k0 (antibody, mouse IgG1, kappa)
heavy: B1 heavy with E233V, S235I, K264D, Q291L, A322D, A323G
light: not shown
notes: copies: 2 + 2
B20: H237-MB870/MRAL-k0 (antibody, mouse IgG1, kappa)
heavy: B1 heavy with E233V, S235I, K264D, A322D, A323G, K330R
light: not shown
notes: copies: 2 + 2
B21: H237-MB866/MRAL-k0 (antibody, mouse IgG1, kappa)
heavy: B1 heavy with E233V, S235I, A322D, A323G
light: not shown
notes: copies: 2 + 2
B22: H237-MB868/MRAL-k0 (antibody, mouse IgG1, kappa)
heavy: B1 heavy with E233V, S235I, K264D, N320D, A322D, A323G
light: not shown
notes: copies: 2 + 2
B23: H237-MB876/MRAL-k0 (antibody, mouse IgG1, kappa)
heavy: B1 heavy with E233V, S235I, K264D, Q291L, A322D, A323G, E329Y
light: not shown
notes: copies: 2 + 2

Target: T1, mouse FcγRII extracellular domain, …
Test: SPR (Biacore T200); KD of H237-mIgG1/MRAL-k0 / KD of variant
Description: (§1) Each altered antibody was analyzed for its interaction with each Fcγ receptor prepared above using Biacore T100 (GE Healthcare Japan Corp.), Biacore T200 (GE Healthcare Japan Corp.), Biacore A100, or Biacore 4000. The running buffer used was HBS-EP+ (GE Healthcare Japan Corp.). The assay temperature was set to 25° C. The sensor chips used were chips prepared by immobilizing Protein L (ACTIGEN or BioVision) onto Series S Sensor Chip CM5 (GE Healthcare Japan Corp.) or Series S Sensor Chip CM4 (GE Healthcare Japan Corp.) by the amine coupling method.
(§2) In order to calculate the KD value of each altered antibody for FcγR, kinetic analysis was conducted according to the following method: first, the antibody of interest was captured onto any of these chips and allowed to interact with mFcγR diluted with a running buffer. For the obtained sensorgram, the assay results were globally fit into the 1:1 Langmuir binding model using Biacore Evaluation Software to calculate an association rate constant ka (L/mol/s) and a dissociation rate constant kd (1/s). From these values, the dissociation constant KD (mol/L) was calculated.

Row | relative mFcγRII-binding activity (mIgG1 = 1) [fold] | Binder
1 | 1.47 | B1
2 | 2.21 | B2
3 | 0.47 | B3
4 | 2.46 | B4
5 | 3.29 | B5

Target: T2, mouse FcγRIII extracellular domain, …
Test: as above
Description: as §1, §2

Row | relative mFcγRIII-binding activity (mIgG1 = 1) [fold] | Binder
6 | 0.08 | B1
7 | 0.11 | B2
8 | 0.03 | B3
9 | 0.09 | B4
10 | 0.13 | B5

Target: T1, mouse FcγRII extracellular domain, …
Test: as above
Remark: another data set of the same source
Text: (§3) The antibody H chain variable region used was the variable region H237 (SEQ ID NO: 1) of the H chain VH3-IgG1 of the anti-IL-6 receptor antibody Fv4-IgG1 described in WO2009/125825. The antibody L chain commonly used was the L chain MRAL-k0 (SEQ ID NO: 2) of the anti-IL-6 receptor antibody tocilizumab. The aforementioned 11 variants were used as templates to introduce the alteration. These variants were expressed and purified by the method of Reference Example 1 and evaluated for their binding to mFcγRII and mFcγRIII by the method of Reference Example 2 using Biacore T200.
as §1, §2

Row | relative mFcγRII-binding activity (mIgG1 = 1) [fold] | Binder
11 | 0.84 | B6
12 | 7.13 | B7

Target: T2, mouse FcγRIII extracellular domain, …
Test: as above
Remark: another data set of the same source
Text: as §3, §1, §2

Row | relative mFcγRIII-binding activity (mIgG1 = 1) [fold] | Binder
13 | 0.03 | B6
14 | 0.03 | B7

Target: T3, mouse FcγRII extracellular domain, …
Test: SPR Biacore T200, KD ratio

Row | relative mFcγRII-binding activity (mIgG1 = 1) [fold] | Binder
15 | 0.23 | B8
16 | 0.16 | B9
17 | 0.31 | B10
18 | 0.08 | B11
19 | 0.3 | B12
20 | 0.37 | B13
21 | 0.05 | B14

Target: T4, mouse FcγRIII extracellular domain, …
Test: SPR Biacore T200

Row | binding result | Binder
22 | no binding | B8
23 | no binding | B9
24 | no binding | B10
25 | no binding | B11
26 | no binding | B12
27 | no binding | B13
28 | no binding | B14

Target: T1, mouse FcγRII extracellular domain, …
Test: SPR (Biacore T200); KD of H237-mIgG1/MRAL-k0 / KD of variant
Remark: another data set of the same source
Text: as §3, with “H237-MB716/MRAL-k0 was” for “The aforementioned 11 variants were”, “a template” for “templates”, “alterations.” for “alteration.”
as §1

Row | relative mFcγRII-binding activity (mIgG1 = 1) [fold] | Binder
29 | 35.2 | B15
30 | 55.3 | B16
31 | 41 | B17
32 | 72.8 | B18
33 | 61.8 | B19
34 | 38.6 | B20
35 | 13 | B21
36 | 36.6 | B22
37 | 58.7 | B23

Target: T2, mouse FcγRIII extracellular domain, …
Test: as above
Remark: another data set of the same source
Text: as §3, with “H237-MB716/MRAL-k0 was” for “The aforementioned 11 variants were”, “a template” for “templates”, “alterations.” for “alteration.”
as §1

Row | relative mFcγRIII-binding activity (mIgG1 = 1) [fold] | Binder
38 | 0.85 | B15
39 | 1.45 | B16
40 | 0.94 | B17
41 | 1.92 | B18
42 | 1.67 | B19
43 | 1.05 | B20
44 | 0.18 | B21
45 | 0.86 | B22
46 | 1.48 | B23

Target: T1, mouse FcγRII extracellular domain, …
Test: SPR (Biacore T200); KD of H237-MB716/MRAL-k0 / KD of variant
Text: as §3, with “H237-MB716/MRAL-k0 was” for “The aforementioned 11 variants were”, “a template” for “templates”, “alterations.” for “alteration.”
as §1

Row | relative mFcγRII-binding activity (MB716 = 1) [fold] | Binder
47 | 8.1 | B15
48 | 12.7 | B16
49 | 9.4 | B17
50 | 16.8 | B18
51 | 14.2 | B19
52 | 8.9 | B20
53 | 3 | B21
54 | 8.4 | B22
55 | 13.5 | B23

Target: T2, mouse FcγRIII extracellular domain, …
Test: as above
Text: as §3, with “H237-MB716/MRAL-k0 was” for “The aforementioned 11 variants were”, “a template” for “templates”, “alterations.” for “alteration.”
as §1

Row | relative mFcγRIII-binding activity (MB716 = 1) [fold] | Binder
56 | 14.3 | B15
57 | 24.4 | B16
58 | 15.8 | B17
59 | 32.3 | B18
60 | 28.2 | B19
61 | 17.6 | B20
62 | 3.02 | B21
63 | 14.4 | B22
64 | 24.9 | B23
